Source: patent US20230121197A1, “ANTIBODIES SPECIFICALLY BINDING THE CARBOXYMETHYLATED CATALYTIC SUBUNIT OF PROTEIN PHOSPHATASE 2A” (Medizinische Universität Wien, priority 2020, published 2023)

What was measured:
HA-PP6c = target: T1, HA-PP6c (Mus musculus, UniProt Q9CQR6); test: Immunoblotting of anti-HA immunoprecipitates of NIH3T3 cells, PP6c; assay type: binding
T1 construct: expressed in transfected cells; host or cells: NIH3T3 mouse fibroblasts, retroviral pBabe hygro HA-PP6c
T1 sequence (Q9CQR6 1-305): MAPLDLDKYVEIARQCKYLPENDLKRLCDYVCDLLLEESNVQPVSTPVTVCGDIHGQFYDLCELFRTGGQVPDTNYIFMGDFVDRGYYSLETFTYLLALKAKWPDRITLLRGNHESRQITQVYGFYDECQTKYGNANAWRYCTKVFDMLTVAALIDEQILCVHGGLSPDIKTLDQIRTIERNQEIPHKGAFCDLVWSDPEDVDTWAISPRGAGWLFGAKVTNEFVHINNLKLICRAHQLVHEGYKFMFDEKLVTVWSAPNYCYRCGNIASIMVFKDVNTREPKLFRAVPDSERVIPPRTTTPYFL
Text: The catalytic subunits of protein phosphatase 4 (PP4c) and 6 (PP6c) are closely related to PP2Ac with approximately 50% sequence identity. PP2Ac, PP4c and PP6c share the C-terminal DYFL or YFL motif, respectively (FIG. 8A). Therefore, a potential cross-reactivity of 7C10-C5 with α-carboxymethylated PP4c and/or PP6c was examined and compared to another anti-carboxymethyl-PP2Ac antibody 2A10. 2A10 is a carboxymethyl-PP2Ac specific antibody that has been raised against a larger C-terminal PP2Ac peptide (amino acids 302-309, carboxymethylated Leu^309) and that has been shown before to cross-react with α-carboxymethylated PP4c (Lee (2014), Biochem Biophys Res Commun 452, 42-47). HA tagged human PP2Ac a, mouse HA PP4c or mouse HA PP6c from NIH3T3 mouse fibroblasts stably expressing these HA-tagged proteins were immunoprecipitated. The precipitated proteins were then analyzed by immunoblotting with anti-carboxymethyl-PP2Ac antibodies 7C10-C5 or 2A10.
Specifically, 500 μl corresponding to 1 mg of whole cell protein lysates of NIH3T3 mouse fibroblasts were incubated with anti-hemagglutinin (HA) antibody (clone 12CA5) crosslinked to BSA-coated protein A-Sepharose beads (GE-Healthcare) to immunoprecipitate HA-epitope tagged PP2Ac, PP4c or PP6c for 1 h. […]

PP6 = test: Summary of cross-reactivities of C-terminal PP2Ac antibodies (Table 4), PP6; conditions: antibodies screened for binding methylated PP2Ac
Text: Examples of antibodies with a preference for non-methylated PP2Ac are mouse monoclonal antibody 4B7 (Yu (2001), Mol Biol Cell 12, 185-199), mouse monoclonal antibody 1D7 generated by the Ogris lab but also the rabbit monoclonal E155 antibody from Abeam and the mouse monoclonal F-8 from SCBT that were thought to be specific for pTyr^307.

[1] = target: T2, PP2Ac C-terminal peptide meL309, ac-HVTRRTPDYFL-CH3 (α-carboxymethylated) (human, SMILES …); test: SPR, ratio of steady-state KD values
T2 construct: also called Y307-meL309; mePP2Ac
T2 peptide: Ac-HVTRRTPDYFL-OMe
Text: (A) Saturation curve of the titration of the α-carboxymethylated PP2Ac C-terminal peptide (SEQ ID NO:18) on 7C10-C5 or 2A10 immobilized on a Series S Sensor Chip CM5 (GE Healthcare, 10296958). […] (B) Saturation curve of the titration of the α-carboxymethylated PP4c C-terminal peptide (SEQ ID NO:20) on 7C10-C5 or 2A10 immobilized on a Series S Sensor Chip CM5 (GE Healthcare, 10296958). […] The KD values were obtained using the fitting tool of the BiacoreT200 Evaluation Software (version 3.1).
The differential affinity of anti-carboxymethylated PP2Ac antibodies, 7C10-C5 and 2A10, to carboxymethylated PP2A catalytic subunit versus noncarboxymethylated PP2A catalytic subunit was determined by surface plasmon resonance (SPR) on a Biacore T200 (GE Healthcare) at the Core Facility Biomolecular & Cellular Analysis (University of Natural Resources and Life Sciences Vienna BOKU). The affinity of 7C10-C5 for carboxymethylated and noncarboxymethylated catalytic subunit of PP4 (PP4c), a PP2A-related phosphatase, was also determined.

[2] = target: T2, PP2Ac C-terminal peptide meL309, …; test: ELISA, peptide coated at 2 µg/ml, supernatant 1:50
Experimental: Nunc Medisorp 96-well ELISA flat-bottom plates were coated with peptides L309 (ac-[…]) (SEQ ID NO:18), meL309 (ac-[…]-CH₃) (SEQ ID NO:18) or amL309 (ac-[…]-NH₂) (SEQ ID NO:18) at 2 μg/ml in TBS at 4° C. over-night. After washing once with TBS, the wells were incubated with 2% BSA in TBS for 1 h at RT. After washing once with TBS, the wells were incubated with single clone hybridoma cell culture supernatant clone 7C10-C5 1:50 (˜1 μg/ml) in 1% BSA/TBS for 1 h at RT. After washing twice with TBS, wells were incubated with anti-mouse HRP-coupled secondary antibody for 1 h at RT, followed by washing 3× in PBS. Bound antibodies were detected by colorimetric reaction with 3,3′,5,5′-Tetramethylbenzidine as substrate, and absorbance was measured at 450 nm. Values were normalized to meL309 which was set to 1. Average and standard deviation of N=8 experiments are shown. Statistical significance was assessed using ANOVA followed by Tukey's HSD as a post-hoc test. P values are indicated with *, **, ***, which correspond to values of <0.05, <0.01, and <0.001.
Specifically, flat-bottom Nunc-Immuno Medisorp 96-well ELISA plates (Thermo; 467320) were coated o/n at 4° C. with 50 μl of either a peptide of the sequence ac-[…]-OH (L309; unmodified) (SEQ ID NO:18) at a concentration of 2 μg/ml, a peptide of the sequence ac-[…]-CH₃ (meL309; methylated) (SEQ ID NO:18) at a concentration of 2 μg/ml in TBS (137 mM NaCl (AppliChem, #131659, 2.7 mM KCl (AppliChem, #131494), 24.8 mM Tris (AppliChem, #A1086), pH 7.4 with HCl) or a peptide of the sequence ac-[…]-NH₂ (amL309; amidated) (SEQ ID NO:18) at a concentration of 2 μg/ml in TBS. Of note, the “ac-” in the peptides described here and in other Examples refers to an acetylated N-terminus. Said acetylation neutralizes the positive charge at the N-terminus, and the free charged N-terminus is thereby removed.

B1: 7C10-C5: α-carboxymethylation specific mouse monoclonal IgG1 antibody from single clone hybridoma 7C10-C5 (DSM ACC3350) (antibody)
heavy: MYRMQLLSCIALSLALVTNSDVQLQESGPGLVKPSQSLSLTCSVTGYSITSGYYWNWIRQFPGNKLEWMGYISYDGSNNYNPSLKNRISITRDTSKNQFFLKLNSVTTEDTATYYCAGRFAYWGQGTLVTVSAAKTTAPSVYPLAPVCGDTTGSSVTLGCLVKGYFPEPVTLTWNSGSLSSGVHTFPAVLQSDLYTLSSSVTVTSSTWPSQSITCNVAHPASSTKVDKKIEPRGPTIKPCPPCKCPAPNLLGGPSVFIFPPKIKDVLMISLSPIVTCVVVDVSEDDPDVQISWFVNNVEVHTAQTQTHREDYNSTLRVVSALPIQHQDWMSGKEFKCKVNNKDLPAPIERTISKPKGSVRAPQVYVLPPPEEEMTKKQVTLTCMVTDFMPEDIYVEWTNNGKTELNYKNTEPVLDSDGSYFMYSKLRVEKKNWVERNSYSCSVVHEGLHNHHTTKSFSRTPGK
light: MDMRVPAQLLGLLLLWLSGARCDVLMTQTPLSLPVSLGDQASISCRSSQSIVHSNGNTYLEWYLQKPGQSPKLLIYKVSNRFSGVPDRFSGSGSGTDFTLKINRVEAEDLGVYYCFQGSHVPWTFGGGTKLEIKADAAPTVSIFPPSSEQLTSGGASVVCFLNNFYPKDINVKWKIDGSERQNGVLNSWTDQDSKDSTYSMSSTLTLTKDEYERHNSYTCEATHKTSTSPIVKSFNRNEC
modifications: Amino acid sequence of the recombinant 7C10-C5 heavy chain; Amino acid sequence of the recombinant 7C10-C5 light chain
For B1, the “detection of PP6c” value (HA-PP6c; Western blot of HA immunoprecipitates) was “did not detect”, the “binding to carboxymethylated PP2Ac stronger than to carboxymethylated PP6c” value (HA-PP6c; Western blot, suggested since no discernable signal) was 100-fold or even 500-fold and the “PP6 meLeu^305” value (PP6) was “— (— <15%)”.

B2: 7C10-C5 monoclonal antibody (antibody, V domains shown)
VH: DVQLQESGPGLVKPSQSLSLTCSVTGYSITSGYYWNWIRQFPGNKLEWMGYISYDGSNNYNPSLKNRISITRDTSKNQFFLKLNSVTTEDTATYYCAGRFAYWGQGTLVTVSA
VL: DVLMTQTPLSLPVSLGDQASISCRSSQSIVHSNGNTYLEWYLQKPGQSPKLLIYKVSNRFSGVPDRFSGSGSGTDFTLKINRVEAEDLGVYYCFQGSHVPWTFGGGTKLEIK
notes: Used as hybridoma culture supernatant (ELISA, Western blot, IHC) or at 50 µg/mL (SPR); also called 7C10 X63; clone 7C10-C5
In the case of B2, the “fold stronger binding than to carboxymethylated PP4c (ratio of KD)” value [1] is reported as 12 fold, the “fold higher ELISA signal intensity than with the amidated peptide (amL309)” value [2] is reported as 6 fold and the “fold higher ELISA signal intensity than with the non-methylated peptide (L309)” value [2] is reported as 26 fold. For the same molecule, the “fold higher ELISA signal intensity than with the α-carboxymethylated PP4c peptide (meL307)” value [2] was ≥ 10 fold.
